Reference: patent publication US20180155451A1 (published 2018)

T1: FcγRIIa H (human, UniProt P12318 34-217)
T1 construct: extracellular domain; also called FcgRIIa H type; 2aH
T1 sequence (looked up): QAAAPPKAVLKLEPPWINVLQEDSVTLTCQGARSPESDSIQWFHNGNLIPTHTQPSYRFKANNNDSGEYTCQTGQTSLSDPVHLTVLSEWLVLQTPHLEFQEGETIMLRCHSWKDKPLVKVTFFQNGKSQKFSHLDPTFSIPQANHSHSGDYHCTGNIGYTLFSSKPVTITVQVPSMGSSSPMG

T2: FcγRIIb (human, UniProt P31994 43-217)
T2 construct: extracellular domain; also called FcgRIIb; 2b
T2 sequence (looked up): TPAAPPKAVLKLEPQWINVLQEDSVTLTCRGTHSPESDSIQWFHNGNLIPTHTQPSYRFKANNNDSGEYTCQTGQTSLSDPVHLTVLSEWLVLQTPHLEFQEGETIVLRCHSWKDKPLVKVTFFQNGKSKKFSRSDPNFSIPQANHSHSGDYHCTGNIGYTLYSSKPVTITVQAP

T3: FcγRIIb extracellular domain with C-terminal His tag (human, UniProt P31994 43-217)
T3 construct: extracellular domain; also called FcgRIIb; 2b; not shown: His tag at the C terminus
T3 sequence (looked up): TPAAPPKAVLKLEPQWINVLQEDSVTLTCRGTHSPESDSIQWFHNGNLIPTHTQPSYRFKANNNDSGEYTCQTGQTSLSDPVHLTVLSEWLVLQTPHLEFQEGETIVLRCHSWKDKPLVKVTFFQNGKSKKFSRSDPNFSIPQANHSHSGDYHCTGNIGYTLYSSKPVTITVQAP


Assays:
FcγRIIa H = molecular target: T1, FcγRIIa H; assay: SPR (Biacore), antibody captured on antigen-peptide chip, FcγR as analyte; binding relative to GpH7-A5/GpH7-B3/GpL16-k0 = 100
FcγRIIb = molecular target: T2, FcγRIIb; assay: as above
[1] = molecular target: T4, FcγRIIIa extracellular domain with C-terminal His tag (human, UniProt P08637 17-208); assay: SPR (Biacore), antibody captured via antigen peptide, FcγR as analyte; binding relative to GpH7-A5/GpH7-B3/GpL16-k0 = 100
T4 construct: extracellular domain; also called FcgRIIIa; 3a; not shown: His tag at the C terminus
T4 sequence (P08637 17-208): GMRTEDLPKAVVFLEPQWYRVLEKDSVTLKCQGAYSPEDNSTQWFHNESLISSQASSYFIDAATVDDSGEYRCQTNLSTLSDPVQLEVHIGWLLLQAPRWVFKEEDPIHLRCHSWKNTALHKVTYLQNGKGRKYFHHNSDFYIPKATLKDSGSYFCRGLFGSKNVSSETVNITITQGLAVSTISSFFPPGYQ

[2] = molecular target: T3, FcγRIIb extracellular domain with …; assay: as above

| Binder | He/Con_2aH (FcγRIIa H) | He/Con_2b (FcγRIIb) | He/Con_3a [1] | He/Con_2b [2] |
| --- | --- | --- | --- | --- |
| GpH7-A5/GpH7-B3 variant I336_10E/GpL16-k0 (antibody, human IgG1, kappa, Heterodimerized anti-glypican-3 IgG1; substitution in only one H chain (the GpH7-B3 chain); also called He Ab) heavy 1: not shown heavy 2: not shown light: DIVMTQSPLSLPVTPGEPASISCQASESLVHSNRNTYLHWYLQKPGQSPQLLIYKVSNRFSGVPDRFSGSGSGTDFTLKISRVEAEDVGVYYCSQNTHVPPTFGQGTKVEIERTVAAPSVFIFPPSDEQLKSGTASVVCLLNNFYPREAKVQWKVDNALQSGNSQESVTEQDSKDSTYSLSSTLTLSKADYEKHKVYACEVTHQGLSSPVTKSFNRGEC | 102 % of HeCon Ab | 89.8 % of HeCon Ab | – | – |
| GpH7-A5/GpH7-B3 variant I336_03V/GpL16-k0 (antibody, human IgG1, kappa, Heterodimerized anti-glypican-3 IgG1; substitution in only one H chain (the GpH7-B3 chain); also called He Ab) heavy 1: not shown heavy 2: not shown light: DIVMTQSPLSLPVTPGEPASISCQASESLVHSNRNTYLHWYLQKPGQSPQLLIYKVSNRFSGVPDRFSGSGSGTDFTLKISRVEAEDVGVYYCSQNTHVPPTFGQGTKVEIERTVAAPSVFIFPPSDEQLKSGTASVVCLLNNFYPREAKVQWKVDNALQSGNSQESVTEQDSKDSTYSLSSTLTLSKADYEKHKVYACEVTHQGLSSPVTKSFNRGEC | 102 % of HeCon Ab | 90.3 % of HeCon Ab | – | – |
| GpH7-A5/GpH7-B3 variant T335_01G/GpL16-k0 (antibody, human IgG1, kappa, Heterodimerized anti-glypican-3 IgG1; substitution in only one H chain (the GpH7-B3 chain); also called He Ab) heavy 1: not shown heavy 2: not shown light: DIVMTQSPLSLPVTPGEPASISCQASESLVHSNRNTYLHWYLQKPGQSPQLLIYKVSNRFSGVPDRFSGSGSGTDFTLKISRVEAEDVGVYYCSQNTHVPPTFGQGTKVEIERTVAAPSVFIFPPSDEQLKSGTASVVCLLNNFYPREAKVQWKVDNALQSGNSQESVTEQDSKDSTYSLSSTLTLSKADYEKHKVYACEVTHQGLSSPVTKSFNRGEC | 103 % of HeCon Ab | 96.7 % of HeCon Ab | – | – |
| GpH7-A5/GpH7-B3 variant S337_01G/GpL16-k0 (antibody, human IgG1, kappa, He Ab: the mutation stands only in the GpH7-B3-derived H chain; also called He Ab S337G) heavy 1: not shown heavy 2: not shown light: DIVMTQSPLSLPVTPGEPASISCQASESLVHSNRNTYLHWYLQKPGQSPQLLIYKVSNRFSGVPDRFSGSGSGTDFTLKISRVEAEDVGVYYCSQNTHVPPTFGQGTKVEIERTVAAPSVFIFPPSDEQLKSGTASVVCLLNNFYPREAKVQWKVDNALQSGNSQESVTEQDSKDSTYSLSSTLTLSKADYEKHKVYACEVTHQGLSSPVTKSFNRGEC | – | – | 102 relative (control = 100) | 92 relative (control = 100) |
| GpH7-A5/GpH7-B3 variant E333_09D/GpL16-k0 (antibody, human IgG1, kappa, Heterodimerized anti-glypican-3 IgG1; substitution in only one H chain (the GpH7-B3 chain); also called He Ab) heavy 1: not shown heavy 2: not shown light: DIVMTQSPLSLPVTPGEPASISCQASESLVHSNRNTYLHWYLQKPGQSPQLLIYKVSNRFSGVPDRFSGSGSGTDFTLKISRVEAEDVGVYYCSQNTHVPPTFGQGTKVEIERTVAAPSVFIFPPSDEQLKSGTASVVCLLNNFYPREAKVQWKVDNALQSGNSQESVTEQDSKDSTYSLSSTLTLSKADYEKHKVYACEVTHQGLSSPVTKSFNRGEC | 103 % of HeCon Ab | 94.3 % of HeCon Ab | – | – |
| GpH7-A5/GpH7-B3 variant T335_05P/GpL16-k0 (antibody, human IgG1, kappa, He Ab: the mutation stands only in the GpH7-B3-derived H chain; also called He Ab T335P) heavy 1: not shown heavy 2: not shown light: DIVMTQSPLSLPVTPGEPASISCQASESLVHSNRNTYLHWYLQKPGQSPQLLIYKVSNRFSGVPDRFSGSGSGTDFTLKISRVEAEDVGVYYCSQNTHVPPTFGQGTKVEIERTVAAPSVFIFPPSDEQLKSGTASVVCLLNNFYPREAKVQWKVDNALQSGNSQESVTEQDSKDSTYSLSSTLTLSKADYEKHKVYACEVTHQGLSSPVTKSFNRGEC | – | – | 105 relative (control = 100) | 99.9 relative (control = 100) |
| GpH7-A5/GpH7-B3 variant S337_04F/GpL16-k0 (antibody, human IgG1, kappa, He Ab: the mutation stands only in the GpH7-B3-derived H chain; also called He Ab S337F) heavy 1: not shown heavy 2: not shown light: DIVMTQSPLSLPVTPGEPASISCQASESLVHSNRNTYLHWYLQKPGQSPQLLIYKVSNRFSGVPDRFSGSGSGTDFTLKISRVEAEDVGVYYCSQNTHVPPTFGQGTKVEIERTVAAPSVFIFPPSDEQLKSGTASVVCLLNNFYPREAKVQWKVDNALQSGNSQESVTEQDSKDSTYSLSSTLTLSKADYEKHKVYACEVTHQGLSSPVTKSFNRGEC | – | – | 101 relative (control = 100) | 97.8 relative (control = 100) |
| GpH7-A5/GpH7-B3 variant T335_05P/GpL16-k0 (antibody, human IgG1, kappa, Heterodimerized anti-glypican-3 IgG1; substitution in only one H chain (the GpH7-B3 chain); also called He Ab) heavy 1: not shown heavy 2: not shown light: DIVMTQSPLSLPVTPGEPASISCQASESLVHSNRNTYLHWYLQKPGQSPQLLIYKVSNRFSGVPDRFSGSGSGTDFTLKISRVEAEDVGVYYCSQNTHVPPTFGQGTKVEIERTVAAPSVFIFPPSDEQLKSGTASVVCLLNNFYPREAKVQWKVDNALQSGNSQESVTEQDSKDSTYSLSSTLTLSKADYEKHKVYACEVTHQGLSSPVTKSFNRGEC | 108 % of HeCon Ab | 99.9 % of HeCon Ab | – | – |
| GpH7-A5/GpH7-B3 variant E333_13S/GpL16-k0 (antibody, human IgG1, kappa, Heterodimerized anti-glypican-3 IgG1; substitution in only one H chain (the GpH7-B3 chain); also called He Ab) heavy 1: not shown heavy 2: not shown light: DIVMTQSPLSLPVTPGEPASISCQASESLVHSNRNTYLHWYLQKPGQSPQLLIYKVSNRFSGVPDRFSGSGSGTDFTLKISRVEAEDVGVYYCSQNTHVPPTFGQGTKVEIERTVAAPSVFIFPPSDEQLKSGTASVVCLLNNFYPREAKVQWKVDNALQSGNSQESVTEQDSKDSTYSLSSTLTLSKADYEKHKVYACEVTHQGLSSPVTKSFNRGEC | 101 % of HeCon Ab | 81.8 % of HeCon Ab | – | – |
| GpH7-A5/GpH7-B3 variant E333_08L/GpL16-k0 (antibody, human IgG1, kappa, Heterodimerized anti-glypican-3 IgG1; substitution in only one H chain (the GpH7-B3 chain); also called He Ab) heavy 1: not shown heavy 2: not shown light: DIVMTQSPLSLPVTPGEPASISCQASESLVHSNRNTYLHWYLQKPGQSPQLLIYKVSNRFSGVPDRFSGSGSGTDFTLKISRVEAEDVGVYYCSQNTHVPPTFGQGTKVEIERTVAAPSVFIFPPSDEQLKSGTASVVCLLNNFYPREAKVQWKVDNALQSGNSQESVTEQDSKDSTYSLSSTLTLSKADYEKHKVYACEVTHQGLSSPVTKSFNRGEC | 102 % of HeCon Ab | 95 % of HeCon Ab | – | – |

Results, then the binder that gave them:

| He/Con_2aH (FcγRIIa H) | He/Con_2b (FcγRIIb) | He/Con_3a [1] | He/Con_2b [2] | Binder |
| --- | --- | --- | --- | --- |
| 102 % of HeCon Ab | 94.6 % of HeCon Ab | – | – | GpH7-A5/GpH7-B3 variant E333_04F/GpL16-k0 (antibody, human IgG1, kappa, Heterodimerized anti-glypican-3 IgG1; substitution in only one H chain (the GpH7-B3 chain); also called He Ab) heavy 1: not shown heavy 2: not shown light: DIVMTQSPLSLPVTPGEPASISCQASESLVHSNRNTYLHWYLQKPGQSPQLLIYKVSNRFSGVPDRFSGSGSGTDFTLKISRVEAEDVGVYYCSQNTHVPPTFGQGTKVEIERTVAAPSVFIFPPSDEQLKSGTASVVCLLNNFYPREAKVQWKVDNALQSGNSQESVTEQDSKDSTYSLSSTLTLSKADYEKHKVYACEVTHQGLSSPVTKSFNRGEC |
| 101 % of HeCon Ab | 94 % of HeCon Ab | – | – | GpH7-A5/GpH7-B3 variant T335_02A/GpL16-k0 (antibody, human IgG1, kappa, Heterodimerized anti-glypican-3 IgG1; substitution in only one H chain (the GpH7-B3 chain); also called He Ab) heavy 1: not shown heavy 2: not shown light: DIVMTQSPLSLPVTPGEPASISCQASESLVHSNRNTYLHWYLQKPGQSPQLLIYKVSNRFSGVPDRFSGSGSGTDFTLKISRVEAEDVGVYYCSQNTHVPPTFGQGTKVEIERTVAAPSVFIFPPSDEQLKSGTASVVCLLNNFYPREAKVQWKVDNALQSGNSQESVTEQDSKDSTYSLSSTLTLSKADYEKHKVYACEVTHQGLSSPVTKSFNRGEC |
| 103 % of HeCon Ab | 97.6 % of HeCon Ab | – | – | GpH7-A5/GpH7-B3 variant I336_18N/GpL16-k0 (antibody, human IgG1, kappa, Heterodimerized anti-glypican-3 IgG1; substitution in only one H chain (the GpH7-B3 chain); also called He Ab) heavy 1: not shown heavy 2: not shown light: DIVMTQSPLSLPVTPGEPASISCQASESLVHSNRNTYLHWYLQKPGQSPQLLIYKVSNRFSGVPDRFSGSGSGTDFTLKISRVEAEDVGVYYCSQNTHVPPTFGQGTKVEIERTVAAPSVFIFPPSDEQLKSGTASVVCLLNNFYPREAKVQWKVDNALQSGNSQESVTEQDSKDSTYSLSSTLTLSKADYEKHKVYACEVTHQGLSSPVTKSFNRGEC |
| 100 % of HeCon Ab | 86.1 % of HeCon Ab | – | – | GpH7-A5/GpH7-B3 variant E333_14T/GpL16-k0 (antibody, human IgG1, kappa, Heterodimerized anti-glypican-3 IgG1; substitution in only one H chain (the GpH7-B3 chain); also called He Ab) heavy 1: not shown heavy 2: not shown light: DIVMTQSPLSLPVTPGEPASISCQASESLVHSNRNTYLHWYLQKPGQSPQLLIYKVSNRFSGVPDRFSGSGSGTDFTLKISRVEAEDVGVYYCSQNTHVPPTFGQGTKVEIERTVAAPSVFIFPPSDEQLKSGTASVVCLLNNFYPREAKVQWKVDNALQSGNSQESVTEQDSKDSTYSLSSTLTLSKADYEKHKVYACEVTHQGLSSPVTKSFNRGEC |
| – | – | 102 relative (control = 100) | 99.4 relative (control = 100) | GpH7-A5/GpH7-B3 variant T335_06M/GpL16-k0 (antibody, human IgG1, kappa, He Ab: the mutation stands only in the GpH7-B3-derived H chain; also called He Ab T335M) heavy 1: not shown heavy 2: not shown light: DIVMTQSPLSLPVTPGEPASISCQASESLVHSNRNTYLHWYLQKPGQSPQLLIYKVSNRFSGVPDRFSGSGSGTDFTLKISRVEAEDVGVYYCSQNTHVPPTFGQGTKVEIERTVAAPSVFIFPPSDEQLKSGTASVVCLLNNFYPREAKVQWKVDNALQSGNSQESVTEQDSKDSTYSLSSTLTLSKADYEKHKVYACEVTHQGLSSPVTKSFNRGEC |
